The values that follow come from the RNAGym collection of RNA variant scans (doi:10.1093/molbev/msab373).

Sequences and labels used below:
B1: Azoarcus group I ribozyme (parent)
chain: GUGCCUUGCGCCGGGAAACCACGCAAGGGAUGGUGUCAAAUUCGGCGAAACCUAAGCGCCCGCCCGGGCGUAUGGCAACGCCGAGCCAAGCUUCGGCGCCUGCGCCGAUGAAGGUGUAGAGACUAGACGGCACCCACCUAAGGCAAACGCUAUGGUGAAGGCAUAGUCCAGGGAGUGGCGAAAGUCACACAAACCGG

In the series the parent is B1. Put plainly: reverse-splicing fitness (ratio to wild type); higher = more active; in vitro selection; Mg2+ level not given. A digest of the protocol: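 An in vitro group I ribozyme library with randomized positions was T7-transcribed and gel-purified. In triplicate, 10 pmol RNA in EPPS pH 7.5 was reacted with 50 pmoles of a 30-nt RNA substrate for 1 h at 37 °C across several added MgCl2 levels (1–48 mM), then stopped with EDTA. Products were reverse transcribed from a substrate-complementary primer, PCR-amplified and sequenced (HiSeq 4000). Fitness is a variant's read proportion after selection over that before, normalised to wild type.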
For GUGCCUUGCGCCGGGAAACCACGCAAGGGAUGGUGUCAAAUUCGGCGAAACCUAAGCGCCCGCCCGGGCGUAUGGCAACGCCGAGCCAAGCUUCGGCGCCUGCGCCGAUGGAGGUGUAGCGACUAGACGGCACCCACCUAAGGCCAACGCUAUGGUGAAGGCAUAGUCGAGGGAGAGGCGAAAGUCACACAAACCGG [A111G A120C A145C C169G U176A], the reverse-splicing fitness was 0.0167.
In the case of GUGCCUUGCGCCGGGAAACCACGCAAGGGAUGGUGUCAAAUUCGGCGAAACCUAAGCGCCCGCCCGGGCGUAUGGCAACGCAGAGCCAAGCUUCGGCGCCUGCGCCGAUGAAGGUGUAGUGACUAGACGGCACCCACCUAAGGCUAACGUUAUGGUGAAGGCAUAGUCUAGGGAGCGGCGAAAGUCACACAAACCGG [C82A A120U A145U C150U C169U U176C], the reverse-splicing fitness was 0.00354.
Consider GUGCCUUGCGCCGGGAAACCACGCAAGGGAUGGUGUCAAAUUCGGCGAAACCUAAGCGCCCGCCCGGGCGUAUGGCAACGCAGAGCCAAGCUUCGGCGCCUGCGCCGAUGAAGGUGUAGCGACUAGACGGCACCCACCUAAGGCUAACGGUAUGGUGAAGGCAUAGUCUAGGGAGUGGCGAAAGUCACACAAACCGG [C82A A120C A145U C150G C169U], for which the reverse-splicing fitness was determined as 0.0114.
As to GUGCCUUGCGCCGGGAAACCACGCAAGGGAUGGUGUCAAAUUCGGCGAAACCUAAGCGCCCGCCCGGGCGUAUGGCAACGCUGAGCCAAGCUUCGGCGCCUGCGCCGAUGAAGGUGUAGUGACUAGACGGCACCCACCUAAGGCGAACGAUAUGGUGAAGGCAUAGUCAAGGGAGUGGCGAAAGUCACACAAACCGG [C82U A120U A145G C150A C169A], the reverse-splicing fitness was determined as 0.00483.
In the case of GUGCCUUGCGCCGGGAAACCACGCAAGGGAUGGUGUCAAAUUCGGCGAAACCUAAGCGCCCGCCCGGGCGUAUGGCAACGCUGAGCCAAGCUUCGGCGCCUGCGCCGAUGAAGGUGUAGGGACUAGACGGCACCCACCUAAGGCAAACGGUAUGGUGAAGGCAUAGUCUAGGGAGAGGCGAAAGUCACACAAACCGG [C82U A120G C150G C169U U176A], the reverse-splicing fitness came out at 0.0125.
GUGCCUUGCGCCGGGAAACCACGCAAGGGAUGGUGUCAAAUUCGGCGAAACCUAAGCGCCCGCCCGGGCGUAUGGCAACGCUGAGCCAAGCUUCGGCGCCUGCGCCGAUGUAGGUGUAGGGACUAGACGGCACCCACCUAAGGCUAACGCUAUGGUGAAGGCAUAGUCUAGGGAGGGGCGAAAGUCACACAAACCGG [C82U A111U A120G A145U C169U U176G]: the reverse-splicing fitness is 0.0035.
Take GUGCCUUGCGCCGGGAAACCACGCAAGGGAUGGUGUCAAAUUCGGCGAAACCUAAGCGCCCGCCCGGGCGUAUGGCAACGCGGAGCCAAGCUUCGGCGCCUGCGCCGAUGAAGGUGUAGUGACUAGACGGCACCCACCUAAGGCAAACGUUAUGGUGAAGGCAUAGUCCAGGGAGCGGCGAAAGUCACACAAACCGG [C82G A120U C150U U176C]: the reverse-splicing fitness came out at 0.058.
As to GUGCCUUGCGCCGGGAAACCACGCAAGGGAUGGUGUCAAAUUCGGCGAAACCUAAGCGCCCGCCCGGGCGUAUGGCAACGCCGAGCCAAGCUUCGGCGCCUGCGCCGAUGAAGGUGUAGCGACUAGACGGCACCCACCUAAGGCAAACGCUAUGGUGAAGGCAUAGUCGAGGGAGAGGCGAAAGUCACACAAACCGG [A120C C169G U176A], the reverse-splicing fitness was determined as 0.016.
For GUGCCUUGCGCCGGGAAACCACGCAAGGGAUGGUGUCAAAUUCGGCGAAACCUAAGCGCCCGCCCGGGCGUAUGGCAACGCGGAGCCAAGCUUCGGCGCCUGCGCCGAUGGAGGUGUAGAGACUAGACGGCACCCACCUAAGGCUAACGCUAUGGUGAAGGCAUAGUCCAGGGAGGGGCGAAAGUCACACAAACCGG [C82G A111G A145U U176G], the reverse-splicing fitness was found to be 0.136.
Consider GUGCCUUGCGCCGGGAAACCACGCAAGGGAUGGUGUCAAAUUCGGCGAAACCUAAGCGCCCGCCCGGGCGUAUGGCAACGCGGAGCCAAGCUUCGGCGCCUGCGCCGAUGAAGGUGUAGUGACUAGACGGCACCCACCUAAGGCGAACGAUAUGGUGAAGGCAUAGUCGAGGGAGUGGCGAAAGUCACACAAACCGG [C82G A120U A145G C150A C169G], for which the reverse-splicing fitness was determined as 0.00459.
As for GUGCCUUGCGCCGGGAAACCACGCAAGGGAUGGUGUCAAAUUCGGCGAAACCUAAGCGCCCGCCCGGGCGUAUGGCAACGCGGAGCCAAGCUUCGGCGCCUGCGCCGAUGAAGGUGUAGAGACUAGACGGCACCCACCUAAGGCCAACGCUAUGGUGAAGGCAUAGUCGAGGGAGAGGCGAAAGUCACACAAACCGG [C82G A145C C169G U176A], the reverse-splicing fitness worked out at 0.0202.
As for GUGCCUUGCGCCGGGAAACCACGCAAGGGAUGGUGUCAAAUUCGGCGAAACCUAAGCGCCCGCCCGGGCGUAUGGCAACGCUGAGCCAAGCUUCGGCGCCUGCGCCGAUGCAGGUGUAGGGACUAGACGGCACCCACCUAAGGCCAACGCUAUGGUGAAGGCAUAGUCAAGGGAGUGGCGAAAGUCACACAAACCGG [C82U A111C A120G A145C C169A], the reverse-splicing fitness is 0.0073.
To GUGCCUUGCGCCGGGAAACCACGCAAGGGAUGGUGUCAAAUUCGGCGAAACCUAAGCGCCCGCCCGGGCGUAUGGCAACGCCGAGCCAAGCUUCGGCGCCUGCGCCGAUGGAGGUGUAGCGACUAGACGGCACCCACCUAAGGCAAACGAUAUGGUGAAGGCAUAGUCCAGGGAGAGGCGAAAGUCACACAAACCGG [A111G A120C C150A U176A] belongs 0.0735; to GUGCCUUGCGCCGGGAAACCACGCAAGGGAUGGUGUCAAAUUCGGCGAAACCUAAGCGCCCGCCCGGGCGUAUGGCAACGCUGAGCCAAGCUUCGGCGCCUGCGCCGAUGAAGGUGUAGAGACUAGACGGCACCCACCUAAGGCAAACGUUAUGGUGAAGGCAUAGUCGAGGGAGCGGCGAAAGUCACACAAACCGG [C82U C150U C169G U176C], 0.015.
In the case of GUGCCUUGCGCCGGGAAACCACGCAAGGGAUGGUGUCAAAUUCGGCGAAACCUAAGCGCCCGCCCGGGCGUAUGGCAACGCAGAGCCAAGCUUCGGCGCCUGCGCCGAUGCAGGUGUAGAGACUAGACGGCACCCACCUAAGGCCAACGCUAUGGUGAAGGCAUAGUCUAGGGAGGGGCGAAAGUCACACAAACCGG [C82A A111C A145C C169U U176G], the reverse-splicing fitness was 0.00646.
